One test has as its target T1, TrkB_H284-H430 ECD-6H (human, UniProt Q16620 284-430).
T1 construct: the SEC-MALS construct is named only by its residue limits and tag; also called soluble truncated form of the ECD of TrkB
Briefly: SEC-MALS.

In test [1] the target is T2, human full-length TrkB receptor (human, UniProt Q16620 32-822). Briefly: cell-based or functional assay.
The target of test [2] is T3, recombinant human TrkB extracellular domain (FLAG tag-GSA-C32-H430-His5) (human, UniProt Q16620 31-430).
T3 construct: Single alanine mutants were made in this ECD; also called TrkB-ECD; TrkB ECD; not shown: FLAG tag
T3 sequence (Q16620 other isoform, or with tags, fused parts or gaps): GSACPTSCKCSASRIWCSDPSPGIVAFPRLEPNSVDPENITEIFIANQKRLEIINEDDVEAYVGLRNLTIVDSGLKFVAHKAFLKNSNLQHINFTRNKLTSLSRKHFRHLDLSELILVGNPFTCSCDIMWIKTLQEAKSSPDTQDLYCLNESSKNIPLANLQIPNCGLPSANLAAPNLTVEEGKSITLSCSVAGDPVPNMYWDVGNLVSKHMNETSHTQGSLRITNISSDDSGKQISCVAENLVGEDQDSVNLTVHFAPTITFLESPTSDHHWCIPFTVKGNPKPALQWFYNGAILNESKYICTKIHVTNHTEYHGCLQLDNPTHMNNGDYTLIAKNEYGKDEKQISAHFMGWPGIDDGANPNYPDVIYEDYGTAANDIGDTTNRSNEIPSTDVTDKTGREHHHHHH
Briefly: SPR, human TrkB-ECD.

The target in test [3] is T2, human full-length TrkB receptor. Briefly: cell-based or functional assay. This is another data set of the same source.
For test [4] the target is unchanged. Briefly: cell-based or functional assay. This is another data set of the same source.
Test [5] concerns the target T4, pan-neurotrophin receptor p75^NTR (UniProt P08138 29-427, limits assumed).
T4 construct: whole, on cells
T4 sequence (looked up): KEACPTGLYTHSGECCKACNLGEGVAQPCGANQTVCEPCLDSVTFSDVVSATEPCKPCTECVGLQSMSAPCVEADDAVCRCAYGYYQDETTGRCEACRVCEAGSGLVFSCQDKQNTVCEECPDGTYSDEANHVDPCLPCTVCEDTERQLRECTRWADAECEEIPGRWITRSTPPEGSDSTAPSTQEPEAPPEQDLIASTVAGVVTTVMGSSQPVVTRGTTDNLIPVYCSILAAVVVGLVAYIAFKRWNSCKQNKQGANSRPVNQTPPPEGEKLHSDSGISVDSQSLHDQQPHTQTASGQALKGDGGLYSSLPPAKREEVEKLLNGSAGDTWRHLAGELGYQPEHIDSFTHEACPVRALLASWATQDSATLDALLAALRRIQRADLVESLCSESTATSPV
Briefly: cell based binding assay.

The target of test [6] is TrkB D1-D3 domain variant (C32-L196) (human, UniProt Q16620 32-196). Nature of the test: SPR with TrkB domain deletion variants.
Chain of TrkB D1-D3 domain variant (C32-L196) (Q16620 32-196 limits assumed, stated change not applied): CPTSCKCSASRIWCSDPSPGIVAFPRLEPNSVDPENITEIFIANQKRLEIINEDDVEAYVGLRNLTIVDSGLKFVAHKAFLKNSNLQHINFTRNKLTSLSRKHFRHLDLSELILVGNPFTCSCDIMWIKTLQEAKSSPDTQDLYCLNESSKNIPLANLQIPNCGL
Another test addresses T5, rat TrkB receptor (rat, UniProt Q63604 32-821).
T5 construct: whole, on cells; also called rodent TrkB
Briefly: recombinant TrkB in a heterologous cell line, primary cells or human iPSC derived cells.

The next test concerns the target T6, murine TrkB receptor (murine, UniProt P15209 32-821).
T6 construct: whole, on cells; also called mouse TrkB; rodent TrkB
The test is described as above.

The target of another test is human FcRn (human, UniProt P55899 24-297; P61769 21-119, limits assumed). Nature of the test: SPR.
Chain of human FcRn (P55899 24-297 limits assumed, chain 1 of 2): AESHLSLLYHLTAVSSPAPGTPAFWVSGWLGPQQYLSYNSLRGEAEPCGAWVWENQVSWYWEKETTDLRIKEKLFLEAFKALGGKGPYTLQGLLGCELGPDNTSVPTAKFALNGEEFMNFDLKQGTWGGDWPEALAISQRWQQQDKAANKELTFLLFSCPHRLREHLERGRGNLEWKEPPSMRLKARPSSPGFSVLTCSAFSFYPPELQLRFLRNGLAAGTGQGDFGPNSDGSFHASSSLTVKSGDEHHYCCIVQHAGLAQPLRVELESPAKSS
Chain of human FcRn (P61769 21-119 limits assumed, chain 2 of 2): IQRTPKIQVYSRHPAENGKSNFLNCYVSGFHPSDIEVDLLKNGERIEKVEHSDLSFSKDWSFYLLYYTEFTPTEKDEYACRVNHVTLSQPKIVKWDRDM
In test [7] the target is T3, recombinant human TrkB extracellular …. Nature of the test: SPR, 1:1 binding mode, recombinant human TrkB-ECD.
The target in test [8] is T7, recombinant cynomolgus TrkB-ECD (cynomolgus, UniProt A0A2K5VS06 32-430).
T7 construct: extracellular domain
Nature of the test: SPR, 1:1 binding mode, recombinant cynomolgus TrkB-ECD.

T2 sequence (Q16620 32-822 limits assumed): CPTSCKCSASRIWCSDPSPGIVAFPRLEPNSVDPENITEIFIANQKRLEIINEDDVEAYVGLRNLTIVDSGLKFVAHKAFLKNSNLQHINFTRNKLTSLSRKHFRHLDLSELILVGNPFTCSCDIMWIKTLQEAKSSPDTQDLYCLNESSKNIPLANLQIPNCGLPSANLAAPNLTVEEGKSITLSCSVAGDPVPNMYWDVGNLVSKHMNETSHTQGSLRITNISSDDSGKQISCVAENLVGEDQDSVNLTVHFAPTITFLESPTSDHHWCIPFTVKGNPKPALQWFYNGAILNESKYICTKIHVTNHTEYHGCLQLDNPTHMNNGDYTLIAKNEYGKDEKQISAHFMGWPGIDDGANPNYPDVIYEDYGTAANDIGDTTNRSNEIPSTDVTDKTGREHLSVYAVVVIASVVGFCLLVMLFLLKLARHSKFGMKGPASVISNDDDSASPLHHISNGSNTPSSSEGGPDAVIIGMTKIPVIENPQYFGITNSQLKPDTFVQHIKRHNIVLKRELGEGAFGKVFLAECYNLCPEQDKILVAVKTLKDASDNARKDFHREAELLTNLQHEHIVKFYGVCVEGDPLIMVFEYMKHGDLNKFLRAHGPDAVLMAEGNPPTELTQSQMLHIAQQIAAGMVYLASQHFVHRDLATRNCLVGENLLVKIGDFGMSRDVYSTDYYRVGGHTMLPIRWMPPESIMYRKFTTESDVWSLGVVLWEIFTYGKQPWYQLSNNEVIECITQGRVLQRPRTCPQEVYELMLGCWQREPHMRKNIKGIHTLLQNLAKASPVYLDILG
T5 sequence (Q63604 32-821): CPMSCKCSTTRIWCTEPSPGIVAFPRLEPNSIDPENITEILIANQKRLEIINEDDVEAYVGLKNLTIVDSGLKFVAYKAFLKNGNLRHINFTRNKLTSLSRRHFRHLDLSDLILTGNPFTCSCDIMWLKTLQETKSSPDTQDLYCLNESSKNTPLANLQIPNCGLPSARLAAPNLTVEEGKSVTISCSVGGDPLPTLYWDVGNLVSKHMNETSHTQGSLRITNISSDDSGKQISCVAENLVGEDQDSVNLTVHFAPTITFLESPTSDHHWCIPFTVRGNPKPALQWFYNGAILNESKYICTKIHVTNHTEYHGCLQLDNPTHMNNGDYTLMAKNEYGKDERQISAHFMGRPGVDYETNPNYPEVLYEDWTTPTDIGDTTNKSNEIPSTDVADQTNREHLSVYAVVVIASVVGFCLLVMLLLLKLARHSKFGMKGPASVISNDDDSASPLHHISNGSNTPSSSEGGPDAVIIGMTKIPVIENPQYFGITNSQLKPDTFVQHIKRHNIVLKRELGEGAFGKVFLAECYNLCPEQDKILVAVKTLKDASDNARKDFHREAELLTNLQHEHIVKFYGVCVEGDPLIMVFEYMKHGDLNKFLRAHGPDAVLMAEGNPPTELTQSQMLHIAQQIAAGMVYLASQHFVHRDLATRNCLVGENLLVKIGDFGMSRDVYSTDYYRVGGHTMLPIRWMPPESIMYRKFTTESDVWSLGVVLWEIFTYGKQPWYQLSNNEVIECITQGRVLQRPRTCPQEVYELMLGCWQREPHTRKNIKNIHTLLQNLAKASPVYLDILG
T1 sequence (Q16620 other isoform, or with tags, fused parts or gaps limits assumed): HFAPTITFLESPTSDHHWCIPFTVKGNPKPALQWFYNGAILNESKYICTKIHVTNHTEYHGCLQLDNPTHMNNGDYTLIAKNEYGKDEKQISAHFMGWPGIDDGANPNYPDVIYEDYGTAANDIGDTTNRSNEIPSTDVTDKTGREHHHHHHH
T6 sequence (P15209 32-821): as the sequence (Q63604 32-821) above, with M3T, T9S, T10A, I32V, K63R, G84S, T153M, I185L, T394S, N770S counted along it

B1: Brain Derived Neurotrophic Factor (BDNF) (ligand, UniProt P23560 129-247, looked up)
chain: HSDPARRGELSVCDSISEWVTAADKKTAVDMSGGTVTVLEKVPVSKGQLKQYFYETKCNPMGYTKEGCRGIDKRHWNSQCRTTQSYVRALTMDSKKRIGWRFIRIDTSCVCTLTIKRGR
notes: also called BNDF
As to B1, the binding result with TrkB_H284-H430 ECD-6H is on record as “binds”.

B2: 3A3 (murine TrkB agonist monoclonal antibody) (antibody, mouse IgG1, kappa, V domains shown)
VH: QVQLQQSGAELAKPGASVKMSCKASGYTFSSYWMHWVKQRPGQGLEWIGYINPSTGYTDYNQKFKDKATLTADKSSNTAYMQLSSLTSDDSAVYYCARSRAARYWGQGTTLTVSS
VL: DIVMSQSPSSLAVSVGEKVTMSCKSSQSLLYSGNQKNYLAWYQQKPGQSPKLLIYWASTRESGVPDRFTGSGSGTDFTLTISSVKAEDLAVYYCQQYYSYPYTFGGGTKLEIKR
notes: Full length murine chains; also called 3B3; 3A3 (=3B3)
For the molecule B2, in [1], the “cell survival, EC50” value was determined as 0.006 nM. Besides, in test [2], the Kd was roughly 7.5 nM, the koff was determined as 0.000897 s⁻¹ and the kon amounted to 120000 M⁻¹ s⁻¹. In test [3], the “Activation of TrkB (pTrkB), EC50” value was 0.2 to 0.6 nM and the “Potentiation of BDNF-induced agonism of TrkB (pTrkB, BDNF alone = 100%)” value (“Potentiation … (pTrkB, BDNF alone = 100%)” for short) was roughly 160%. In addition, in [4], the “EC50 (read off the curve), potentiation of pTrkB in the presence of 10 nM BDNF” value was roughly 0.7 nM.

B3: 5D11 (murine TrkB agonist monoclonal antibody) (antibody, mouse IgG1, kappa, V domains shown)
VH: QVHLQQSGAELVRPGTSVKVSCKASGYAFTNYLIEWIKQRPGQGLEWIGVINPGSGGTNYNDKFKGKAILTADKSSTTAYMQLSSLTSDDSAVYFCARGGNDYGDYWGQGTSVTVSS
VL: DIVLTQSPASLAVSLGQRATISCRASQSVSTSFYSYMHWYQQKPGQPPKVFIKYASNLQSGVPARFSGSGSGTDFTLNIHPVEEDDTATYYCQHSWEIPWTFGGGTKLEIKR
notes: Full length murine chains; same as 3E10; also called 3E10; 5D11 (=3E10)
Consider B3, for which, in [2], the Kd was roughly 3.3 nM, the koff worked out at 0.000145 s⁻¹ and the kon stood at 44100 M⁻¹ s⁻¹. Also, in [3], the “Activation of TrkB (pTrkB), EC50” value is 1 to 2 nM.

B4: 1G11 (murine TrkB agonist monoclonal antibody) (antibody, V domains shown)
VH: QVQLQQSGDDLVKPGASVKLSCKASGYTFTSYYINWIKQRPGQGLECIGRIAPGNTYYNEIFKGKAILTVDTSSSTAYIQLSSLSSEDSGVYFCARRGYEGALDYWGQGTSVTVSS
VL: DIVLTQSPATLSVTPGDSVSLSCRASQRISNNLHWYQQKSHESPRLLIKYVSQSISGIPSRFSGSGSGTDFTLSINSVETEDFGMYFCQQSNSWPLTFGAGTKLELKR
notes: Full length murine heavy and light chains; from a hybridoma of Balb/c mice immunised with human TrkB-ECD; Not Fc-disabled; also called 1G11 mAb; murine 1G11
B4: in test [1], the “cell survival, rat PC12 cells stably expressing human full length TrkB, EC50” value was 0.025 nM and the “neurite outgrowth, rat PC12 cells stably expressing human full length TrkB, EC50” value came out at 0.19 nM. Further, in test [2], the Kd was roughly 42 nM, the koff came to 0.00239 s⁻¹ and the kon is 56600 M⁻¹ s⁻¹. In addition, the binding result in [5] is recorded as “no binding”. Also, in test [3], the “Activation of TrkB (pTrkB, Y515), EC50, CHO-K1 cells” value amounted to 3.1 nM and the “Potentiation … (pTrkB, BDNF alone = 100%)” value is roughly 130%. Also, in test [4], the “EC50 (read off the curve), potentiation of pTrkB in the presence of 10 nM BDNF” value is roughly 10 nM. The binding result in test [6] is reported as “no binding”. In addition, the binding result in the test with rat TrkB receptor is “binds”. Besides, the binding result with murine TrkB receptor is given as “binds”.

B5: Humanised 1G11 (H7, Lo1) (antibody, human IgG1, kappa)
heavy: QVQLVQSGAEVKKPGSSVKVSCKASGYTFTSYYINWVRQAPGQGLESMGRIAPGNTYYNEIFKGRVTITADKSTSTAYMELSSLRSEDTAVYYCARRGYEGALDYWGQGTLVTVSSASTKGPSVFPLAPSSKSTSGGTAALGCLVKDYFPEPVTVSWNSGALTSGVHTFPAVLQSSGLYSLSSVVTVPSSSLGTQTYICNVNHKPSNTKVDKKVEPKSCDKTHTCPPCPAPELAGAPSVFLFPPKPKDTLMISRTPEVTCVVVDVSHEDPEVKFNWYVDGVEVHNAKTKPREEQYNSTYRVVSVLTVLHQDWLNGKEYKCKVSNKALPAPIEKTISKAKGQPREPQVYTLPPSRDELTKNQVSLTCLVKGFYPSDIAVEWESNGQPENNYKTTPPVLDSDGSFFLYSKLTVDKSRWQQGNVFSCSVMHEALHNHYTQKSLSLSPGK
light: EIVLTQSPATLSLSPGERATLSCRASQRISNNLHWYQQKPGQAPRLLIKYVSQSISGIPARFSGSGSGTDFTLTISSLEPEDFAVYYCQQSNSWPLTFGQGTKLEIKRTVAAPSVFIFPPSDEQLKSGTASVVCLLNNFYPREAKVQWKVDNALQSGNSQESVTEQDSKDSTYSLSSTLTLSKADYEKHKVYACEVTHQGLSSPVTKSFNRGEC
notes: Straight graft with serine at Kabat position 47 of VH; human IgG1 Fc with L235A and G237A (EU), Fc-disabled
In the case of B5, the binding result with human FcRn is recorded as “binds”. In test [1], the “Activation of TrkB (pTrkB), EC50, CHO-K1 cells” value was determined as 0.65 nM; the “cell survival, rat PC12 cells stably expressing human full length TrkB, EC50” value was 0.007 nM; the “neurite outgrowth, rat PC12 cells stably expressing human full length TrkB, EC50” value was 0.07 nM. The Kd in test [7] is roughly 55 nM. In [8], the Kd is roughly 60 nM.

B6: 8E5 (murine TrkB agonist monoclonal antibody) (antibody, mouse IgG1, kappa, V domains shown)
VH: EVQLVESGGDLVKPGGSLKLSCAASGFTFSTYGMSWVRQTPDKGLEWVATVSTGGTYTYYPDSVKGRFTISRDNAKNTLYLQMSSLKSEDTAMYYCARGGYSFAYWGQGTLVTVSA
VL: ENVLTQSPAIMSASPGEKVTMTCRASSSVSSSYLHWYQQKSGVSPKLWIYSTSNLASGVPARFSGSGSGTSYSLTISSVEAEDAATYYCQQYSGYPLTFGAGTKLELKR
notes: Full length murine chains
With B6, in test [1], the “cell survival, EC50” value amounted to 0.09 nM and the “neurite outgrowth, EC50” value was 1.58 nM. Besides, in test [2], the Kd is roughly 9.8 nM, the koff was found to be 0.000676 s⁻¹ and the kon turned out to be 69000 M⁻¹ s⁻¹. In test [3], the “Activation of TrkB (pTrkB), EC50” value is roughly 15 nM and the “Potentiation … (pTrkB, BDNF alone = 100%)” value was roughly 120%.

Values taken from US9914781 (GlaxoSmithKline, dated 2018).
